A short description of this data set: yeast display, Sf9 membrane polyspecificity reagent, FACS + sequencing; frameworks hold sequencing errors. Put shortly:
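Galactose induction of a Saccharomyces cerevisiae BJ5465 synthetic nanobody display library ran 36–48 hours. The cells were then stained for 1 hour at 4 °C with 10% biotinylated, detergent-solubilized Sf9 membrane reagent, pulled down on streptavidin microbeads and FACS-sorted into low and high (top ~1%) gates on expression and reagent-binding fluorescence. Labels for polyreactivity follow the gate of origin.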
On to “QVQLVESGGGLVQAGGSLRLSCAASGSTFFRYSMGWYRQAPGKEREFVAAISKRGGSTHYADSVKGRFTITRDNAKNTVYLQMNSLKPEDTAVYYCAASSFNSSYNYWGQGTQVTVSS”, for which the “polyreactivity (PSR sort gate)” value is “high polyreactivity”.
The entry for “QVQLVESGGGLVQAGGSLRLSCAASGSTFDLYAMGWYRPAPGKERELVAAITSSGGRTYYADSVKGRFTISRDNAKNTVYLQMNSLKPEDTAVYYCAATSSGGYYDGYNYWGQGTQVTVSS” is “high polyreactivity”.
The entry for “QVQLVESGGGLVQAGGSLRLSCAASGRTSVKYAMGWSRQAPGKERELVATIRYRTASTYYADSVKGRFTISRDNAKNTVYLQMNSPKPEDTAVYYCAAATSYASPWWYLYYYWGQGSQVTVSS” is “high polyreactivity”.
Consider “QVQLVESGGGLVQAGGSLRLSCAASGLTFVDYAMGWYRQAPGKERELVAAITSSGGSITYYADSVKGRFTISRDNAKNTVYSQMNSLKPEDTAVYYCNADYGIYTDSFRGPDYESWGQGTQVTVSS”, for which the “polyreactivity (PSR sort gate)” value is reported as “low polyreactivity”.
The entry for “QVHLVESGGGLVQAGGSLRLSCASSGIIFKTYAMGWYRQAPGKERELVAAISSGGTTYYADSVKGRFTISRDNAKNTVYLQMNSLKPEDTAVYYCAARGYRSGGGYNYWGHGTQVTVSS” is “high polyreactivity”; for “QVQLVESGGGLVQAGGSLRLSCAASGLIFIAYSMGWYRQAPGKEREFVAAITWNGVSTYYADSVKGRFTISRDNAKNTVYLQMNSLKPEDTAVYDCNADYDFSPWAYEYWGQGTQVTVSS” it is “high polyreactivity”; for “QVQLVESGGGLVQAGGSLRLSCAASGRTFYINAMGWYRQAPGKERELVATITRSGGSTYYADSVKGRFTISRDNAKNTVYLQMNSLKPEDTAVYYCAAGGGYYRYRDYDYWGQGTQVTVSS” it is “high polyreactivity”.
“QVQLVESGGGLVQAGGSLRLSCAASGFIFRWYTMGWYRQAPGKERELVAAISSSGGTTYYADSVKGRFTISRDNAKNTVYLQMNSLKPEDTAVYYCTTRYPLGGTYTRYPLKGDYWGQGTQVTVSS”: the “polyreactivity (PSR sort gate)” value was “high polyreactivity”.
Regarding “QVQLVESGGGLVQAGGSLRLSCAASGSTFYKYAMGWYRQATGKERELVASTYADSVKGRFTISRDNAKNTVYLQMNSLKPEDTAVYYCAKDTASGPYDYWGQGTQVTVSS”, the “polyreactivity (PSR sort gate)” value was “low polyreactivity”.
The entry for “QVQLVESGGGLVQAGGSLRLSCAASGSIFPYYVMGWYRQAPGKERELVAAISWSGASTYYADSVKGRFTISRDNAKNTVYLQMNSLKPEDTAVYYCAKYSSHFENDYWGQGTQVTVSS” is “low polyreactivity”; for “QVQLVESGGGLVQAGGSLRLSCAPSGFTFYTYAMGWYRQAPGKERELVAVISRSGGRTNYADSVKGRFTISRDNAKNTVYLQMNSLKPEDTAVYYCNRYDRQRSWSVGYDYWGQGTQVTVSS” it is “high polyreactivity”; for “QVQLVESGGGLVQAGGSLRLSCAASVFTFLYYAMGWYRQAPGKERELVAAISSTGGTTYYADSVKGRFTISRDNAKNTVYLQMNSLKPEDTAVYYCAADQGVYRTYWFDYWGQGTQVTVSS” it is “high polyreactivity”.
The entry for “QVQLVESGGGLLQAGGSLRLSCAASGNIFGWYAMGWYRQAPGKERELVAAISSGGRTNYADSVKGRFTISRDNAKNTVYLQMNSLKPEDTAVYYCATPLQQLYGYWGQGTQVSVSS” is “low polyreactivity”; for “QVQLVESAGGLVQAGGSLRLSCAASGYIYGYYVMGWNRQAPGKERELVAAISGRGGRTYYADSVKGRFTISRDNAKNTVYLQMNSLKPEDTAVYYCAAADLPGTMYYWGQGTQVTVSS” it is “high polyreactivity”; for “QVQLVESGGGLVQAGGSLRLSCAASGFTFLAYAMVWYRQAPGKERELVAAIRWSGGRTYYADSVKGRFTISRDNAKNTVYLQMNSLKPEDTAVYYCAADTRRVREYNYWGQGTQVTVSS” it is “low polyreactivity”.
The entry for “QVQLVESGGGLVQAGGSLRLSCAASGRIFYFNAMGWYRQAPGKERELVAAISWSGSRTFYADSVTGRFTISRDNAKNTVYLQMNSLKPEDTAVYYCAVRGYMWNAGNTIRRDYWGQGTQVTVSS” is “high polyreactivity”; for “QVQLVESGGGLDQAGGSLRLSCAASGIIFYVNDMGWYRQAPGKERELVADISGGTSTNYADSVKGRFTISRDNAKNTVYLQMNSLKPEDTAVYYCATAFIVPFPGSDYCGQGTQVTVSS” it is “low polyreactivity”; for “QVQLVESGGGLVHAGGSLRLSCSASGIIFYRYAMGWYRQAPGKERELVAAITWSGVSTSYADSVKGRFTISRDNAKNTVYLKMNSLKPEDTAVYYCNIDPGTLFGDMDSWGQGNQVTVSS” it is “low polyreactivity”.
For the sequence “QDQLVESRGGLVQAGGSLRLSCAASGRIFGYNAMGWYTQAPGKERELVAGITSVGRTYYADSVKGRFTISRDNAKNTVYLQMNSLKPEDTAVYYCNAASYSLAVTAEYEDMDYWGQGTQVTVTS”, the “polyreactivity (PSR sort gate)” value is reported as “low polyreactivity”.
As to “QVQLVESGGGLVQAGGSLRLSCAASGRTFYAYAMGWSRQAPGKERELVAAISWRGGDTYYADSVKGRFTISRDNAKNTVYLQMNSLKPEDTAVYYCAKYLSRQSGDGEYDYWGQGTQVTVSS”, the “polyreactivity (PSR sort gate)” value is “low polyreactivity”.
For the sequence “QVQLVESGGGLVQAGGRLRLSCAASGRTFAFYTMGWYRQAPGKEREFVAAISWSGGSTHYADSVKGRFTISRDNAKNTVYLQMNSLKPEDTAVYYCDAGPFYRFTDGRYKTLDYWGQGTQVTVSS”, the “polyreactivity (PSR sort gate)” value was “high polyreactivity”.
The entry for “QVQLVESGGGLVQSGGSLRLSCAASGRIFYYNAMGWYRQAPGKERELVAAITSSSGSSTYYADSVKGRFTISRDNAKNTVYLQMNSLKPEDTAVYYCNAASLDRFFGYRYNDDDYWGQGTQVTVSS” is “low polyreactivity”; for “QVQLVESGGGLVQAGASLRLSCAASGFTFGINAMGWYRQAPGKERELVATISTRGGTTHYADSVKGRFTISRDNAKNTVYLQMNRLKPEDTAVYYCAVERGTFRSGFAYEYYYWGQGTQVTVSS” it is “low polyreactivity”.
The entry for “QVQLVESGVGLVQAGGSLRLSCAASGRIFGYYTMGWYRQAPGKERELVADSSGGNTSYADSVKGRFTISRDNAKNTVYLQMNSLKPEDTAGYYCAKDLPGAWRGDDYWGQGTQVTVSS” is “low polyreactivity”; for “QVQLVESGGGLVKAGVSLRLSSDASGRTFALYAMGWYRQAPGKERELVASIRGGGGTNYADSVKGRFTISRDNAKNTVYLQMNSLKPEDTAVYYCAARGYGYRGYYYWGQGTQVTVSS” it is “high polyreactivity”.
The entry for “QVQLEESGGGLVQAGGSLRLSCAASGSIFRWNAMGWSRQAPGKERELVAAISSGTSTNYADSVKGRFTISRDNAKNTVYVQMNSQKPEDTAVYYCAARGRKNQRRYGYWGQGTQVTVSS” is “low polyreactivity”; for “QVQRVESGGGLVQAGGSLRLSCAASGITFDRYAMGWYRQAPGKETELVAAISSGGRTNYADSVKGRFTISRDNAKNTVYLQMNSLKPEDTEVYYCSKRRARSGQDYDYWGQGTQVTVSS” it is “low polyreactivity”; for “QVQLVESGGGLVQAGGSLRLSCAASGRTFSSNAMGWYRQAPGKERELVAAITYTGTSTYYADSVKGRFTISRDYAKNTVYLQMNSLKPEDTAVYYCAALYVQGTHTYGYWGQGTQVTVSS” it is “high polyreactivity”.
On to “QVQLVESGGGLVQAGGSLRLSCAASGFSFIDNALGWYPQAPGKERELVAAITWSGGSTYYADSVKGRFTISRDNAKNTVYLQMNSLKPEDTAVYYCAATLWFGVAGDSRYDPPEYDYWGQGTQVTVSS”, for which the “polyreactivity (PSR sort gate)” value is recorded as “low polyreactivity”.
The entry for “QVQLVESVGGLVQAGGSLRLSCAASGRTFFKYAMGLYRQAPGKERELVAAITGRGGSTYADSVKGRFTISRDNAKNTVYLQMNSLKPEDTAVYYCAKVYQRGAQYYYYKYDYWGQGTQVTVSS” is “high polyreactivity”.
The entry for “QVQLVESGGGLVQAGGSLRLSCAASGRIFNQYGMGWYRQAPGKERELVAAIRSGDSTNYADSVKGRFTISRDNAKNTVYLPMNSLKPEDTAVYYCASDRPGDYAGYDYWGQGTQVTVSS” is “low polyreactivity”; for “QVQLVESGGGLVQAAGSLRLSCAASGTTFNRFFMGWYREAPGTERELVAANGGRTYYADSVKGRFTISRDNAKKSVYFQRNSLKPEDTAVYYCNARSYKHPYYRFDYWGQGTEVTVSS” it is “high polyreactivity”.
The entry for “QVQIVESGGGLVQAGGSLRLCCAASGRTFYGSKMGWYRQAPGKESELVAAISRNGASTFYADSVKRRFTISRDNAKKSVYLQINILKPEYTGVYYFNARSWRHTDTSFEYWGQGTQVTVSS” is “high polyreactivity”.
In the case of “QVQLVESGGGLVQAGGSLRLSCAASGSLFGANAMGWYRQAPGKERELVAAISSNGDDTYADSVKGRFTISRDNAKNTVYLQMNSLKPEDTAVYYCNKRPWWWGGDDYWGQGTQVTVSS”, the “polyreactivity (PSR sort gate)” value is on record as “low polyreactivity”.
The entry for “QVQLVESGGGLVQAGGSLRLSSAASGRIFKGNAMGWYRQAPGKERELVAAISKRGGSTHYADSVKGRFTISRDNSKNTVYLQMNSLKPEDTAVYYCATDSYYVGAVHYYYWGQGTQVTVSS” is “high polyreactivity”; for “QVQLVESGGGLVQAGGSLRLICAASGSIFGRYSMGWYRQAPGKERELVAAINYSGGRTYYADSVKGRVTISRDNAKNTVYLQMNSLKPEDTAVYYCAAAQFPDRNYNYWGQGTQVTVSS” it is “high polyreactivity”; for “QVQLVESGGGLVQAGGSLRLSCAASGLIFAEYAMGWYRQAPGKERELVARITSGGSTDYADSVKGRFTISRDNAKNTVYLQMNSLKPEDTALYYCAARYYSQDNNASTASDFDYWGQGTQVTVSS” it is “low polyreactivity”.
Consider “QVQLVESGGGLVQAGGSLRLSCAASGRTFYSYAMGWYRQAPGKERELVASISSSGASTYYADSVKGRFTISRDNAKNTVYLQMNSLKPEDTAVYYCNSVWRTSFITIYGFDYWGQGTQVTVSS”, for which the “polyreactivity (PSR sort gate)” value is on record as “high polyreactivity”.
The entry for “QVQLVESGGGLVHAGGSLRLSCAASGRTFYAYAMGWYRQAPGKERELVAAISWRGGDTYYADSVKGRFTISRDNAKNTVYLQMNSVKPEVTAVYFCCADVYRYSVYLIRNPMDYWGQGTQVTVSS” is “low polyreactivity”; for “QVQLVDTGGGLVQAGGILRIRCAASGRIFHGNSMVCYRQAPGKERELVAAITWGGTRTYYSDSVKGRFTISRDNAKNTVYLQMNSLKPEDTAVYYCATDYGYTDRVTSGFDYWGQGNQVTVSS” it is “low polyreactivity”.

(Values after the nanobody polyreactivity screen of Harvey et al. (2022).)
